The results in this text go back to patent US20200279616A1.

T1: HLA-DRB1*01:01 (biochemical MHC-peptide affinity assay) (human)
T1 chain 1: not shown
T1 chain 2: not shown

T2: HLA-DRB1*11:01 (biochemical MHC-peptide affinity assay) (human)
T2 chain 1: not shown
T2 chain 2: not shown

The first assay concerns the target T3, Thrombin digested soluble HLA-DRB1*15:01 (CLIP0 placeholder construct) (human). The experiment in a line: FP probe displacement; probe m27.
LLRPGQIVAFDSTAQ (modifications not checked) [M248] yielded a % inhibition of probe binding at 0.1uM of 1%, a % inhibition of probe binding at 1uM of 6% and a % inhibition of probe binding at 10uM of 61%. For ASLRSWPSTWAPWAS (modifications not checked) [M371], the % inhibition of probe binding at 0.1uM stood at 46%, the % inhibition of probe binding at 1uM amounted to 58% and the % inhibition of probe binding at 10uM worked out at 74%. The molecule PQLRQWWAQGADPLA (modifications not checked) [M247] displayed a % inhibition of probe binding at 0.1uM of 42%, a % inhibition of probe binding at 1uM of 50% and a % inhibition of probe binding at 10uM of 58%. The like results for PPIDGYPNHPCFEPE (modifications not checked) [M230] were, in that order, 49%, 79% and 82%. For PQILPYPAPEEAQEN (modifications not checked) [M231], the % inhibition of probe binding at 0.1uM turned out to be 21%, the % inhibition of probe binding at 1uM is 50% and the % inhibition of probe binding at 10uM was 66%.

A further assay concerns the target T3, Thrombin digested soluble …. Nature of the assay: differential scanning fluorometry after peptide exchange (Sypro orange). On the technique in general: In DSF a fluorescence change marks the thermal transition of the protein.
LLRPGQIVAFDSTAQ (modifications not checked) [M248] displayed a DTm (sample Tm - control Tm) of 5.6.

Molecule ASLRSWPSTWAPWAS (modifications not checked) [M371] displayed a DTm (sample Tm - control Tm) of 19.9. Turning to PQLRQWWAQGADPLA (modifications not checked) [M247], the DTm (sample Tm - control Tm) amounted to 20.1.

PPIDGYPNHPCFEPE (modifications not checked) [M230] returned a DTm (sample Tm - control Tm) of 21.4. For the molecule PQILPYPAPEEAQEN (modifications not checked) [M231], the Average Tm amounted to 73.9 and the DTm (sample Tm - control Tm) was 15.6.

In the next assay the target is T1, HLA-DRB1*01:01 (biochemical MHC-peptide …). The experiment in a line: biochemical MHC-peptide affinity assay.
As to DKKNIILEEGKEILVG (modifications not checked), the Measured affinity turned out to be 27 nM.

GVQRGLVGEIIKR (modifications not checked) registered a Measured affinity of 8 nM. SPHAFKTESGEETDL (modifications not checked) returned a Measured affinity of 333 nM. The same measure, in the same setting: for TWFNQPARKIR (modifications not checked) the value was 8 nM; for GHPDLQGQPAEEIFES (modifications not checked), 189 nM. MPSFVPSDGRQAAD (modifications not checked) returned a Measured affinity of 3 nM. Turning to GLRYKKLHDPKGWIT (modifications not checked), the Measured affinity was found to be 30 nM.

For the molecule DRYEMEDGKVIER (modifications not checked), the Measured affinity amounted to 54 nM.

A further assay addresses T2, HLA-DRB1*11:01 (biochemical MHC-peptide …). The experiment in a line: biochemical MHC-peptide affinity assay.
EGEYQGIPRAESGG (modifications not checked) gave a Measured affinity of 159 nM.

In the case of LNELKPISKGGHSS (modifications not checked), the Measured affinity stood at 67 nM. GPFSFSVIDKPPG (modifications not checked): the Measured affinity is 209 nM. GMNIVEAMERFGSRNG (modifications not checked): the Measured affinity worked out at 79 nM.

For the molecule IAGEWQVLHREGAIT (modifications not checked), the Measured affinity worked out at 35 nM. The same measure, in the same setting: under LAPTWEELSKKEFPG (modifications not checked) stands 174 nM. TRNEVIPMSHPGAVD (modifications not checked): the Measured affinity turned out to be 36 nM. YEDKFRNNLKGKRLD (modifications not checked): the Measured affinity was determined as 254 nM. For EPAEFIIDTRDAGYG (modifications not checked), the Measured affinity is 195 nM. The molecule GQQWTYEQRKIVE (modifications not checked) returned a Measured affinity of 145 nM. For the molecule ENPYFAPNPKIIRQ (modifications not checked), the Measured affinity turned out to be 128 nM. With DLEELEVLERKPAAG (modifications not checked), the Measured affinity stood at 63 nM. Turning to DVNEYAPVFKEKSYK (modifications not checked), the Measured affinity amounted to 223 nM.

The target of another assay is HLA monomer of the STII-TR-FRET peptide exchange assay (secreted HLA class II alpha/beta heterodimer; allele not stated). Nature of the assay: TR-FRET peptide exchange titration on 20nM DRB1*01:01 (STII-CLIP), 37C; displaced: m2. Background: In TR-FRET formats the signal depends on donor and acceptor labels being close together.
For CLIP (peptide), the IC50 (read off the curve) is 70 nM.
